One molecule from US10845371B2, “Soluble MANF in pancreatic beta-cell disorders” (University of Massachusetts, priority 2012, dated 2020) can be followed below.

Experiment [1] deals with INS-1 832/13 cells (a pancreatic β-cell line). The experiment in a line: Reduced MEROS-GFP by FACS in INS-1 832/13 cells in high glucose with soluble MANF. It counts as cell-based, rat. The conditions noted are these: 25 mM glucose; 0.5 μg/mL soluble MANF (48 hours per FIG. 45). Here is the method: FIG. 45 is a graph of fluorescence-assisted cell sorting data showing the percentage of INS1 832/13 cells (pancreatic (3 cell line) containing the reduced form of EroGFP in the endoplasmic reticulum following culture in 11 mM glucose or 25 mM glucose (24 hours) (top panels and bottom panels, respectively), and treatment with 0 or 0.5 μg/mL soluble MANF for 48 hours (left panels and right panels, respectively). The cells were excited using a wavelength at 473 nm and an emission spectrum of 510 nm.
Further experiments were performed to determine whether soluble MANF can prevent fluctuations in the redox environment in the endoplasmic reticulum of pancreatic β-cells upon exposure to an agent that induces endoplasmic reticulum stress. Experiments were performed using INS-1 832/13 cells (a pancreatic β-cell line) transfected with a lentivirus vector expressing MEROS-GFP. The cells were cultured in 11 mM or 25 mM glucose, and either left untreated or treated with 0.5 μg/mL soluble MANF. The cells were then analyzed using FACS analysis using an excitation spectrum between 460-495 nm and an emission spectrum of between 520-570 nm (FITC-A optical filter) which allows for the specific detection of fluorescent emission from reduced EroGFP in the transfected cells.

In experiment [2] the test system is mouse pancreatic β-cell line (MIN6). Description: Cleaved caspase-3 immunoblot in MIN6 cells treated with tunicamycin and soluble MANF. It counts as cell-based. The conditions noted are these: tunicamycin 1 μM, 24 hours; 0, 40 or 200 nM soluble MANF, FIG. 8. Here is the method: FIG. 8 is an immunoblot showing the levels of cleaved caspase-3 in a murine pancreatic β-cell line (MIN6) untreated or treated for 24-hours with 1 μM tunicamycin or 100 nM thapsigargin, and further treated with 0, 40, or 200 nM soluble MANF.
Additional experiments were performed to determine whether soluble MANF would decrease or delay endoplasmic reticulum stress-induced apoptosis in pancreatic β-cells treated with an endoplasmic reticulum stress-inducing chemical agent.

B1: soluble MANF: soluble mammalian form of mesencephalic astrocyte-derived neurotrophic factor, e.g. human SEQ ID NO: 2; species of tested protein not stated (protein)
chain: LRPGDCEVCISYLGRFYQDLKDRDVTFSPATIENELIKFCREARGKENRLCYYIGATDDAATKIINEVSKPLAHHIPVEKICEKLKKKDSQICELKYDKQIDLSTVDLKKLRVKELKKILDDWGETCKGCAEKSDYIRKINELMPKYAPKAASARTDL
Take B1: the “Number of cells containing a detectable level of reduced MEROS-GFP” value in experiment [1] is on record as “decrease in the number of cells containing a detectable level of reduced MEROS-GFP”. Moreover, in experiment [2], the Caspase-3 cleavage entry is recorded as “significantly reduced the amount of caspase-3 cleavage”.
